Biological target: T1, human GPRC5D on cells (human, UniProt Q9NZD1 1-345)
T1 construct: MM.1S and NCI-H929 cells express it endogenously; also called huGPRC5D; CHOK1-huGPRC5D
Assay: flow cytometry on CHOK1-huGPRC5D cells

T1 sequence (Q9NZD1 whole entry): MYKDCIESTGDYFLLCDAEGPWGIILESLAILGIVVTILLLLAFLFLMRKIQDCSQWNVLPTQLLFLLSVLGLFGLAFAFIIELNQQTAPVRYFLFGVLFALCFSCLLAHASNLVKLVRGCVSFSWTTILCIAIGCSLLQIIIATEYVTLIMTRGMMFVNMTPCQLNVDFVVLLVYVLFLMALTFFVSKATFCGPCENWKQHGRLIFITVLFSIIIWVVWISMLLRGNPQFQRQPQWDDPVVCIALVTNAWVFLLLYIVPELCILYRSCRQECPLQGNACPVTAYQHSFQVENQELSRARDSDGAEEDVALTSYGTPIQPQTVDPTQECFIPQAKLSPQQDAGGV

Row | Binder | EC50 [nM]
1 | hybridoma antibody AB1 (IgG2b-k) (antibody, V domains shown, Mouse hybridoma mIgG, IgG2b kappa) VH: EVQLQQSGPEVVKPGASMKISCKASGYSFTGYTMNWVKQSHGKNFEWIGLINPYNGGTSYNQKFKGKATLTVDKSSSTAYMELLSLTSEDSAVYYCTRGGFRAWFAFWGQGTLVTVSA VL: DIQMTQSPSSLSASLGERVSLTCRASQDIGSNLNWLQQEPDGTIKRLIYATSILDSGVPKRFSGSRSGSDYSLTISSLESEDFVDYYCLQYATFPNTFGGGTKLEIKR | 1.69
2 | hybridoma antibody AB2 (IgG3-k) (antibody, V domains shown, Mouse hybridoma mIgG, IgG3 kappa) VH: VVKLVESGGGLVQPGGSLKLSCAASGFTFSNYGMSWVRQTPDTRLELVATINSNGGNTYYPDSVKGRFTISRDNAKNTLYLQMSSLKSEDTAIYYCVRAYSLTMDYWGQGTSVTVSS VL: DVVMTQTPLSLPVSLGDQASISCRSSQSLVHSNGNTYLHWYLQKPGQSPKLLIYKVSNRFSGVPDRFSGSGSGTDFTLKIIRVEAEDLGVYFCSQSTHVPPTFRAGTKLELKR | 1.93

From patent US20250121064A1 (CARSGEN LIFE SCIENCES, published 2025)
